Assay [1] deals with T1, wild-type (WT) β2AR reconstituted in high-density lipoprotein particles (HDL-β2AR), non-phosphorylated (human, UniProt P07550 1-413).
T1 construct: also called β2AR HDLs; non-phosphorylated HDL-β2AR; not shown: N-terminal FLAG-tag; C-terminal 6xHis-tag
Put plainly: in situ read-outs: [125I]-CYP/isoproterenol competition binding with HDL-β2AR and bimane fluorescence.

For assay [2], the target named is T1, wild-type (WT) β2AR reconstituted in …. Put plainly: cell-based or functional assay.
Assay [3] deals with β2AR ligated to a non-phosphorylated version of the V2R peptide, in HDL particles (β2ARnp) (human, UniProt P07550 1-365). Put plainly: cell-based or functional assay.

B1: β-arrestin1, minimal cysteine and truncated variant of rat βarr1 (βarr1-MC-393) (other, UniProt P29066 1-393, looked up)
chain: MGDKGTRVFKKASPNGKLTVYLGKRDFVDHIDLVDPVDGVVLVDPEYLKERRVYVTLTAAFRYGREDLDVLGLTFRKDLFVANVQSFPPAPEDKKPLTRLQERLIKKLGEHAYPFTFEIPPNLPSSVTLQPGPEDTGKAIGVDYEVKAFVAENLEEKIHKRNSVRLVIRKVQYAPERPGPQPTAETTRQFLMSDKPLHLEASLDKEIYYHGEPISVNVHVTNNTNKTVKKIKISVRQYADIVLFNTAQYKVPVAMEEADDTVAPSSTFSKVYTLTPFLANNREKRGLALDGKLKHEDTNLASSTLLREGANREILGIIVSYKVKVKLVVSRGGLLGDLASSDVAVELPFTLMHPKPKEEPPHREVPESETPVDTNLIELDTNDDDIVFEDFAR
notes: range 1-393; Expressed as GST fusion in BL21(DE3) and removed from GST by thrombin; also called βarr1-393 minimal cysteine
Turning to B1, the binding result in assay [1] is “no binding (tested: micromolar concentrations)”. In addition, in assay [2], the “log IC50 of isoproterenol (ISO), [125I]-CYP competition binding, in the presence of βarr1 (no transducer: -6.82+/-0.03)” value was -6.81 log. In addition, the “log IC50 of isoproterenol (ISO), [125I]-CYP competition binding, in the presence of βarr1 (no transducer: -6.42+/-0.09)” value in assay [3] was -6.49 log.

These data come from patent US20240101642A1 (DUKE UNIVERSITY, published 2024).
